In assay [1] the test system is T1, Ab1 fibrils.
T1 construct: Synthetic amyloid β peptide 1–40 was purchased from Caslo Aps (Lyngby, Denmark); purchased Caslo Aps (Lyngby, Denmark); host or cells: synthetic peptide
Description: Fibril incubation with CSF, quantitative MS/MS of bound proteins. The assay is classed as binding, human. Also on record: key to Identification status of CSF protein bound: Ab1: *: Identified, but not quantified; —: Not identified in any of the samples. To be noted: symbol cells.

The target of assay [2] is T2, αSN fibrils (Homo sapiens, UniProt P37840). Described as above. Type of assay: binding. More on the design: key to Identification status of CSF protein bound: αSN: *: Identified, but not quantified; —: Not identified in any of the samples. To be noted: symbol cells. As to the method:
(§1) Plasma and CSF solutions were centrifuged (40,000 g, 20 min) to remove any aggregates. The protein concentration was determined using 280 nm absorbance assuming 1 Abs = 1 mg/mL. […] Control samples (without fibril material) were prepared similarly. All samples were incubated at room temperature for one hour under gentle agitation. Fibrils and fibril-bound proteins were pelleted by centrifugation at 17,000 g for 30 minutes. The supernatant (175 μL) was removed and the aggregate was re-suspended in 175 μL PBS and pelleted again before further preparation for gel analysis and spin-filter assisted digest for quantitative MS/MS.
(§2) The fibril-protein pellets were transferred to spin-filters (0.22 μm), washed twice in PBS (100 μL) and once in 1 M NaCl (100 μL). The fibrils and fibril-bound proteins were dissolved by one-hour incubation in 100 μL 6 M guanidinium chloride followed by elution from the spin-filter. The eluted proteins were loaded onto a 3 kDa MWCO filter unit for filter-assisted unfolding, reduction, alkylation, and trypsin digestion. In brief, samples were washed twice in 8 M urea, once in 8 M urea with 50 mM DTT, once in 8 M urea with 50 mM iodoaceteamide, and twice in 8 M Urea. The filter units were dried by centrifugation (14,000 g in 30 minutes) after every addition. Trypsin digestion was carried out with 0.25 μg sequencing grade trypsin from Sigma Aldrich in 50 mM ammonium bicarbonate overnight at 37 °C. The tryptic peptides were collected by centrifugation, acidified with TFA (0.1%) and micro-purified using POROS R2 column material (Applied Biosystems) packed in P200 pipette tips (Sarstedt).
(§3) LC-MS/MS analyses were performed on an EASY-nLC II system (Thermo Fisher Scientific) connected to a TripleTOF 5600+ mass spectrometer (Sciex) equipped with a NanoSpray III source (Sciex) and operated under Analyst TF 1.6.0 control.
(§4) The micro-purified tryptic peptides were dissolved in 0.1% formic acid, injected and trapped on an in-house packed trap column (2 cm × 100 μm I.D) with RP ReproSil-Pur C18-AQ 3 μm resin (Dr. Maisch GmbH). Peptides were eluted from the trap column and separated on a 15 cm analytical column (75 μm i.d.) packed in-house in a pulled emitter with RP ReproSil-Pur C18-AQ 3 μm resin (Dr. Maisch GmbH). Elution from the analytical column was performed with a linear gradient from 5% to 35% phase B (90% acetonitrile with 0.1% formic acid) over 20 min for protein identification and 50 min for quantitative analysis, respectively.
(§5) All samples were analysed three times, yielding nine MS/MS experiments for each fibril for both plasma and CSF. For the area-based extracted ion chromatogram (XIC) quantification, the acquisition method was set up as an information-dependent acquisition (IDA) experiment collecting up to 25 MS/MS spectra in each 1.6 sec cycle using an exclusion window of 6 sec.
(§6) XIC quantification was based on the average ion intensity of the three most abundant peptides for each protein. Only proteins quantified in at least four out of nine MS/MS experiments per fibril were included in the quantification. The total ion scores were visualized after grouping the proteins according to function (Figure S11).
(§7) For each MS/MS experiment, the ion intensities of the individual proteins were normalized to the total ion intensity of that MS/MS experiment to achieve a relative protein composition. The contribution of each protein was averaged over all nine MS/MS experiments (Tables 1 and 2).

Assay [3] concerns T3, Ab2 fibrils.
T3 construct: Two structurally distinct fibrils of the Aβ(1–40) peptide associated with AD
The description is as above. Type of assay: binding, human. Also on record: key to Identification status of CSF protein bound: Ab2: *: Identified, but not quantified; —: Not identified in any of the samples. Conditions: symbol cells.

Assay [4] concerns T4, FAS4-AD aggregates.
T4 construct: aggregates of a mutated version of the FAS1-4 domain of TGFBIp
Described as above. The assay is classed as binding, human. More on the design: key to Identification status of CSF protein bound: FAS4-AD: *: Identified, but not quantified; —: Not identified in any of the samples. Conditions: symbol cells.

Assay [5] addresses T5, C-36 fibrils (Homo sapiens, UniProt P01009).
T5 construct: the 36 residue C-terminal fragment of α1-antitrypsin (C-36)
Described as above. The assay is classed as binding. Conditions: 4:1 w/w CSF protein:fibril.

Assay [6] has as its system T4, FAS4-AD aggregates. Description: Fibril incubation with plasma, quantitative MS/MS of bound proteins. Conditions: for Identification status of plasma protein bound: FAS4-AD: symbol cells. The assay is classed as binding, human. More on the design: key to Identification status of plasma protein bound: FAS4-AD: *: Identified, but not quantified; —: Not identified in any of the samples. On the procedure:
as §1, §2, §3, §4, §5, §6, §7

Assay [7] deals with T1, Ab1 fibrils. The assay is described as above. The assay is classed as binding, human. Conditions: 50:1 w/w plasma protein:fibril. As to the method:
Plasma and CSF solutions were centrifuged (40,000 g, 20 min) to remove any aggregates. The protein concentration was determined using 280 nm absorbance assuming 1 Abs = 1 mg/mL. […] Control samples (without fibril material) were prepared similarly. All samples were incubated at room temperature for one hour under gentle agitation. Fibrils and fibril-bound proteins were pelleted by centrifugation at 17,000 g for 30 minutes. The supernatant (175 μL) was removed and the aggregate was re-suspended in 175 μL PBS and pelleted again before further preparation for gel analysis and spin-filter assisted digest for quantitative MS/MS.
as §2, §3, §4, §5, §6, §7

The subject of assay [8] is T3, Ab2 fibrils. The assay is described as above. Type of assay: binding, human. Conditions: 50:1 w/w plasma protein:fibril. As to the method:
as §1, §2, §3, §4, §5, §6, §7

Assay [9] has as its target T6, glucagon fibrils (Homo sapiens, UniProt P01275).
T6 construct: fibrils of the peptide hormone glucagon
Described as above. Type of assay: binding. To be noted: 50:1 w/w plasma protein:fibril. On the procedure:
as §1, §2, §3, §4, §5, §6, §7

In assay [10] the target is T2, αSN fibrils. The description is as above. Also on record: key to Identification status of plasma protein bound: αSN: *: Identified, but not quantified; —: Not identified in any of the samples. Conditions: for Identification status of plasma protein bound: αSN: symbol cells. The assay is classed as binding. As to the method:
as §1, §2, §3, §4, §5, §6, §7

For assay [11], the target named is T5, C-36 fibrils. The description is as above. The assay is classed as binding. To be noted: 50:1 w/w plasma protein:fibril. On the procedure:
as §1, §2, §3, §4, §5, §6, §7

Assay [12] has as its target T6, glucagon fibrils. Description: Fibril incubation with CSF, quantitative MS/MS of bound proteins. Type of assay: binding. Conditions: 4:1 w/w CSF protein:fibril.

The values that follow come from PMC6405930, “Conservation of the Amyloid Interactome Across Diverse Fibrillar Structures” (Scientific Reports, 2019).

T5 sequence (P01009 383-418 limits assumed): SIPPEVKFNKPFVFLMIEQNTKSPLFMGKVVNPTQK
T6 sequence (P01275 53-81 limits assumed): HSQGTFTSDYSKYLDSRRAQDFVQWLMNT

B1: Ig α-1 chain C region: plasma/CSF protein bound to fibrils (protein, UniProt P01876 1-398, looked up)
Immunoglobulin heavy constant …: ASPTSPKVFPLSLCSTQPDGNVVIACLVQGFFPQEPLSVTWSESGQGVTARNFPPSQDASGDLYTTSSQLTLPATQCLAGKSVTCHVKHYTNPSQDVTVPCPVPSTPPTPSPSTPPTPSPSCCHPRLSLHRPALEDLLLGSEANLTCTLTGLRDASGVTFTWTPSSGKSAVQGPPERDLCGCYSVSSVLPGCAEPWNHGKTFTCTAAYPESKTPLTATLSKSGNTFRPEVHLLPPPSEELALNELVTLTCLARGFSPKDVLVRWLQGSQELPREKYLTWASRQEPSQGTTTFAVTSILRVAAEDWKKGDTFSCMVGHEALPLAFTQKTIDRLADWQMPPPYVVLDLPQETLEEETPGANLWPTTITFLTLFLLSLFYSTALTVTSVRGPSGNREGPQY
As for B1, the “Identification status of CSF protein bound: Ab1” value in the assay on Ab1 fibrils [1] was “*”. In the assay with αSN fibrils [2], the “Identification status of CSF protein bound: αSN” value is reported as “—”. Besides, the “Identification status of CSF protein bound: Ab2” value in the assay on Ab2 fibrils [3] is on record as “*”. Further, the “Identification status of CSF protein bound: FAS4-AD” value in the assay on FAS4-AD aggregates [4] is recorded as “—”. The “Relative composition of CSF proteins bound: C-36” value in the assay with C-36 fibrils [5] is 0.5 ± 0.1 % of total protein. In addition, the “Relative composition of plasma proteins bound: FAS4-AD” value with FAS4-AD aggregates [6] (50:1 w/w plasma protein:fibril) is given as 3.9 ± 1.6 % of total protein. In the assay on Ab1 fibrils [7], the “Relative composition of plasma proteins bound: Ab1” value was 1.3 ± 0.1 % of total protein. Further, the “Relative composition of plasma proteins bound: Ab2” value in the assay on Ab2 fibrils [8] is given as 1.3 ± 0.3 % of total protein. In addition, the “Relative composition of plasma proteins bound: Glucagon” value with glucagon fibrils [9] is listed as 1.7 ± 0.0 % of total protein. For the same molecule, the “Relative composition of plasma proteins bound: αSN” value in the assay with αSN fibrils [10] (50:1 w/w plasma protein:fibril) was 0.9 ± 0.3 % of total protein. Further, the “Relative composition of plasma proteins bound: C-36” value with C-36 fibrils [11] is on record as 1.4 ± 0.4 % of total protein. Moreover, in the assay with glucagon fibrils [12], the “Relative composition of CSF proteins bound: Glucagon” value was 0.2 ± 0.1 % of total protein.

B2: Inter-α-trypsin inhibitor heavy chain H2: plasma protein bound to fibrils (protein, UniProt P19823 55-702, looked up)
Inter-alpha-trypsin inhibitor …: SLPGESEEMMEEVDQVTLYSYKVQSTITSRMATTMIQSKVVNNSPQPQNVVFDVQIPKGAFISNFSMTVDGKTFRSSIKEKTVGRALYAQARAKGKTAGLVRSSALDMENFRTEVNVLPGAKVQFELHYQEVKWRKLGSYEHRIYLQPGRLAKHLEVDVWVIEPQGLRFLHVPDTFEGHFDGVPVISKGQQKAHVSFKPTVAQQRICPNCRETAVDGELVVLYDVKREEKAGELEVFNGYFVHFFAPDNLDPIPKNILFVIDVSGSMWGVKMKQTVEAMKTILDDLRAEDHFSVIDFNQNIRTWRNDLISATKTQVADAKRYIEKIQPSGGTNINEALLRAIFILNEANNLGLLDPNSVSLIILVSDGDPTVGELKLSKIQKNVKENIQDNISLFSLGMGFDVDYDFLKRLSNENHGIAQRIYGNQDTSSQLKKFYNQVSTPLLRNVQFNYPHTSVTDVTQNNFHNYFGGSEIVVAGKFDPAKLDQIESVITATSANTQLVLETLAQMDDLQDFLSKDKHADPDFTRKLWAYLTINQLLAERSLAPTAAAKRRITRSILQMSLDHHIVTPLTSLVIENEAGDERMLADAPPQDPSCCSGALYYGSKVVPDSTPSWANPSPTPVISMLAQGSQVLESTPPPHVMRVEND
As to B2, in the assay on FAS4-AD aggregates [6], the “Identification status of plasma protein bound: FAS4-AD” value is recorded as “—”. Moreover, in the assay with Ab1 fibrils [7], the “Relative composition of plasma proteins bound: Ab1” value is given as 0.1 ± 0.0 % of total protein. Also, the “Relative composition of plasma proteins bound: Ab2” value in the assay with Ab2 fibrils [8] was 0.1 ± 0.0 % of total protein. The “Relative composition of plasma proteins bound: Glucagon” value in the assay with glucagon fibrils [9] is 2.7 ± 0.2 % of total protein. Further, the “Identification status of plasma protein bound: αSN” value in the assay with αSN fibrils [10] is “*”. Besides, the “Relative composition of plasma proteins bound: C-36” value with C-36 fibrils [11] is listed as 0.3 ± 0.1 % of total protein.

B3: Complement C1r subcomponent: plasma protein bound to fibrils (protein, UniProt P00736 18-705, looked up)
Complement C1r subcomponent: SIPIPQKLFGEVTSPLFPKPYPNNFETTTVITVPTGYRVKLVFQQFDLEPSEGCFYDYVKISADKKSLGRFCGQLGSPLGNPPGKKEFMSQGNKMLLTFHTDFSNEENGTIMFYKGFLAYYQAVDLDECASRSKSGEEDPQPQCQHLCHNYVGGYFCSCRPGYELQEDTHSCQAECSSELYTEASGYISSLEYPRSYPPDLRCNYSIRVERGLTLHLKFLEPFDIDDHQQVHCPYDQLQIYANGKNIGEFCGKQRPPDLDTSSNAVDLLFFTDESGDSRGWKLRYTTEIIKCPQPKTLDEFTIIQNLQPQYQFRDYFIATCKQGYQLIEGNQVLHSFTAVCQDDGTWHRAMPRCKIKDCGQPRNLPNGDFRYTTTMGVNTYKARIQYYCHEPYYKMQTRAGSRESEQGVYTCTAQGIWKNEQKGEKIPRCLPVCGKPVNPVEQRQRIIGGQKAKMGNFPWQVFTNIHGRGGGALLGDRWILTAAHTLYPKEHEAQSNASLDVFLGHTNVEELMKLGNHPIRRVSVHPDYRQDESYNFEGDIALLELENSVTLGPNLLPICLPDNDTFYDLGLMGYVSGFGVMEEKIAHDLRFVRLPVANPQACENWLRGKNRMDVFSQNMFCAGHPSLKQDACQGDSGGVFAVRDPNTDRWVATGIVSWGIGCSRGYGFYTKVLNYVDWIKKEMEEED
B3: the “Identification status of plasma protein bound: FAS4-AD” value in the assay on FAS4-AD aggregates [6] is on record as “—”. In addition, the “Relative composition of plasma proteins bound: Ab1” value with Ab1 fibrils [7] is 0.2 ± 0.0 % of total protein. Moreover, the “Relative composition of plasma proteins bound: Ab2” value in the assay on Ab2 fibrils [8] was 0.4 ± 0.1 % of total protein. The “Relative composition of plasma proteins bound: Glucagon” value in the assay with glucagon fibrils [9] is listed as 0.1 ± 0.0 % of total protein. The “Identification status of plasma protein bound: αSN” value in the assay with αSN fibrils [10] is given as “*”. For the same molecule, the “Relative composition of plasma proteins bound: C-36” value with C-36 fibrils [11] is recorded as 0.3 ± 0.1 % of total protein.
